Measured values from patent US20200270339A1.
Several values for one entry are separate records, joined by “and”; a condition that tells them apart may be missing. Identical values can stand only once.

What was measured:
[1] = biological target: human IL-15 complexed with the IL-15 Receptor-alpha (human) (UniProt P40933); test: cell-based or functional assay
[2] = biological target: human IL-15 complexed with the IL-15 Receptor-alpha (human) (UniProt P40933); test: SPR, antibody captured on Protein A chip
[3] = biological target: human IL-15 complexed with the IL-15 Receptor-alpha (human) (UniProt P40933); test: SPR
[4] = biological target: human IL-15 complexed with the IL-15 Receptor-alpha (human) (UniProt P40933); test: SPR, antibody captured on Protein A chip, IL-15 complex as analyte

Chain of human IL-15 complexed with the IL-15 Receptor-alpha (human) (P40933 49-162 limits assumed, chain 1 of 2): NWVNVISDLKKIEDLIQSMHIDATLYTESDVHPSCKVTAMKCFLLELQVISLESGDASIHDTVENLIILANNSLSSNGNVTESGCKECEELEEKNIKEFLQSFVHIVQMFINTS
Chain of human IL-15 complexed with the IL-15 Receptor-alpha (human) (chain, as listed by the source limits assumed, chain 2 of 2): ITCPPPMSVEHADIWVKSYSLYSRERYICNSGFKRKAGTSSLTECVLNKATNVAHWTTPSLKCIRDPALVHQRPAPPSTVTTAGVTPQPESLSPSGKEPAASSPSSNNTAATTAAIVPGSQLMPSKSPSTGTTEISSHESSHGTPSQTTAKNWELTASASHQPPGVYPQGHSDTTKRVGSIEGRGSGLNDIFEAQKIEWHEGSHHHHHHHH
Chain of AMG714 (antibody) (VH): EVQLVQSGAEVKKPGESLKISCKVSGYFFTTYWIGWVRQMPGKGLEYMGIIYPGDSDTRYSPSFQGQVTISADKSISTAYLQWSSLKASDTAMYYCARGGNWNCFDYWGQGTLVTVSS
Chain of AMG714 (antibody) (VL): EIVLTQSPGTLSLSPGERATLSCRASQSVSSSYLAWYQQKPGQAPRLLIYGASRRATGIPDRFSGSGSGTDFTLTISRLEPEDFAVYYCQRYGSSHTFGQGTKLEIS

Max IC50 (pM), NK-92 proliferation assay [1]: 2650 pM
Mean IC50 (pM), NK-92 proliferation assay [1]: 1300 pM
Min IC50 (pM), NK-92 proliferation assay [1]: 378 pM
fold faster dissociation rate than from Antibody 70 variants [2]: 10 fold
Kd [3]: 1.86 nM and 1.82 nM
koff [3]: 0.000398 s⁻¹ and 0.00038 s⁻¹
kon [3]: 209000 M⁻¹ s⁻¹ and 214000 M⁻¹ s⁻¹
Kd [4]: 1.84 nM
Substance: AMG714 (antibody)
